Experimental data reported in the array DNA melting data of Ke et al..

Assay: melting temperature; melt of duplexes
Settings: sodium 0.0675 M; strand 1 µM

| Substance | Tm |
| --- | --- |
| CGACGTGCTCAATGTGCTG+CAGCACATGCGGCACGTCG ((((((((...((((((((+))))))))...)))))))) | 49.4 °C |
| CGACGTGCGACATGTGCTG+CAGCACATGGGGCACGTCG ((((((((..(((((((((+)))))))))..)))))))) | 58.4 °C |
| CGACGTGCGCGATGTGCTG+CAGCACATGTAGCACGTCG ((((((((...((((((((+))))))))...)))))))) | 52.6 °C |
| CGACGTGCGGGATGTGCTG+CAGCACATCAGGCACGTCG ((((((((..(((((((((+)))))))))..)))))))) | 56.2 °C |
| CGACGTGCGCTATGTGCTG+CAGCACATACCGCACGTCG (((((((((.(((((((((+))))))))).))))))))) | 54.8 °C |
| CGACGTGCTTCATGTGCTG+CAGCACATATCGCACGTCG ((((((((...((((((((+))))))))...)))))))) | 47.5 °C |
| CGACGTGCGATATGTGCTG+CAGCACATGTCGCACGTCG ((((((((((.((((((((+)))))))).)))))))))) | 61 °C |
| CGACGTGCGTGATGTGCTG+CAGCACATTAGGCACGTCG ((((((((.(.((((((((+)))))))).).)))))))) | 54.1 °C |
| CGACGTGCACTATGTGCTG+CAGCACATGCGGCACGTCG ((((((((...((((((((+))))))))...)))))))) | 43.3 °C |
| CGACGTGCTGAATGTGCTG+CAGCACATATAGCACGTCG (((((((((..((((((((+))))))))..))))))))) | 53.7 °C |
| CGACGTGCGATATGTGCTG+CAGCACATTTTGCACGTCG ((((((((.(.((((((((+)))))))).).)))))))) | 52.5 °C |
| CGACGTGCTGAATGTGCTG+CAGCACATAGAGCACGTCG (((((((((..((((((((+))))))))..))))))))) | 52.2 °C |
| CGACGTGCCTTATGTGCTG+CAGCACATTCAGCACGTCG ((((((((...((((((((+))))))))...)))))))) | 49 °C |
| CGACGTGCTAAATGTGCTG+CAGCACATGGAGCACGTCG (((((((((..((((((((+))))))))..))))))))) | 54.5 °C |
| CGACGTGCCCCATGTGCTG+CAGCACATGAAGCACGTCG ((((((((..(((((((((+)))))))))..)))))))) | 52 °C |
| CGACGTGCACCATGTGCTG+CAGCACATAAGGCACGTCG ((((((((...((((((((+))))))))...)))))))) | 44.1 °C |
| CGACGTGCACAATGTGCTG+CAGCACATCTGGCACGTCG ((((((((...((((((((+))))))))...)))))))) | 47.5 °C |
| CGACGTGCAATATGTGCTG+CAGCACATTTCGCACGTCG ((((((((.(.((((((((+)))))))).).)))))))) | 50.1 °C |

| Substance | Tm |
| --- | --- |
| CGACGTGCACAATGTGCTG+CAGCACATCTCGCACGTCG ((((((((...((((((((+))))))))...)))))))) | 45.1 °C |
| CGACGTGCACAATGTGCTG+CAGCACATAACGCACGTCG ((((((((...((((((((+))))))))...)))))))) | 45.3 °C |
| CGACGTGCGCCATGTGCTG+CAGCACATAGGGCACGTCG ((((((((.(.((((((((+)))))))).).)))))))) | 52.8 °C |
| CGACGTGCATAATGTGCTG+CAGCACATGTTGCACGTCG (((((((((..((((((((+))))))))..))))))))) | 53.7 °C |
| CGACGTGCCACATGTGCTG+CAGCACATGTTGCACGTCG ((((((((.((((((((((+)))))))))).)))))))) | 57.4 °C |
| CGACGTGCCGGATGTGCTG+CAGCACATGCAGCACGTCG ((((((((.(.((((((((+)))))))).).)))))))) | 53.1 °C |
| CGACGTGCGGAATGTGCTG+CAGCACATTTAGCACGTCG ((((((((..(((((((((+)))))))))..)))))))) | 55.1 °C |
| CGACGTGCGGAATGTGCTG+CAGCACATCCAGCACGTCG ((((((((.(.((((((((+)))))))).).)))))))) | 55.1 °C |
| CGACGTGCAAGATGTGCTG+CAGCACATGGAGCACGTCG ((((((((...((((((((+))))))))...)))))))) | 51.6 °C |
| CGACGTGCCCGATGTGCTG+CAGCACATAACGCACGTCG ((((((((...((((((((+))))))))...)))))))) | 47.6 °C |
| CGACGTGCCACATGTGCTG+CAGCACATTGAGCACGTCG ((((((((...((((((((+))))))))...)))))))) | 52.2 °C |
| CGACGTGCGGGATGTGCTG+CAGCACATATCGCACGTCG (((((((((..((((((((+))))))))..))))))))) | 56.7 °C |
| CGACGTGCGATATGTGCTG+CAGCACATCCGGCACGTCG ((((((((...((((((((+))))))))...)))))))) | 49.3 °C |
| CGACGTGCTTGATGTGCTG+CAGCACATCATGCACGTCG ((((((((.((((((((((+)))))))))).)))))))) | 59.5 °C |
| CGACGTGCGGCATGTGCTG+CAGCACATACGGCACGTCG ((((((((.(.((((((((+)))))))).).)))))))) | 51.5 °C |
| CGACGTGCGATATGTGCTG+CAGCACATTGGGCACGTCG ((((((((...((((((((+))))))))...)))))))) | 50.3 °C |
| CGACGTGCTATATGTGCTG+CAGCACATAATGCACGTCG ((((((((..(((((((((+)))))))))..)))))))) | 53 °C |
| CGACGTGCGCAATGTGCTG+CAGCACATTTGGCACGTCG ((((((((..(((((((((+)))))))))..)))))))) | 52.5 °C |
